Assay results as given in paper PMC9307002, “Carboxyl Methyltransferase Catalysed Formation of Mono‐ and Dimethyl Esters under Aqueous Conditions: Application in Cascade Biocatalysis” (Angewandte Chemie (International Ed. in English), 2022).

Experiments:
Experiment in all cases: methyltransferase kinetics
Type in all cases: biochemical, Aspergillus fumigatus
Conditions in all cases: methyl donor SAM
[1] = substrate: COC(=O)c1ccc(C(=O)O)cc1
[2] = substrate: COC(=O)c1ccc(C(=O)O)o1
[3] = substrate: O=C(O)/C=C/C(=O)N[C@@H](Cc1ccc(O)cc1)C(=O)O
[4] = substrate: O=C(O)c1ccc(C(=O)O)cc1
[5] = substrate: O=C(O)c1ccc(C(=O)O)o1

B1: FtpM (Aspergillus fumigatus Af293) (protein)
chain: MTQSNGNAVSSASDPYRLNRNIAASTRLSLQHYIWKENMGYLLHPSIDVSRPDLAIADVGTGTAIWILDLLRQLPNAKFHGFDISSEQYPAPGFLPPNVSLSKLDILGEIPEEYREKFDVVHARLLVQVVNQAGSDPVPVIRNMMKLLKPGGYLQWEEPNDDASKRPIVKADPANSSENAEKLLQRLDARFRAATPASWSVALAETFKEQGLQNVVREEFSTDTYLLLLDQTNYLGLFGELISKLDGDLKEELTQLHANTVAEARKGLSWKVRRFAFLGQKP
notes: recombinant, C-terminal His-tag; dimer (modelled)
Work on B1 yielded a Km [1] of 1510 µM, a kcat [1] of 8.17e-05 s⁻¹ and a Km [2] of 1400 µM. It also gave a kcat [2] of 8.3e-05 s⁻¹, a Km [3] of 680 µM and a kcat [3] of 0.00105 s⁻¹. It also gave a Km [4] of 72 µM, a kcat [4] of 0.0148 s⁻¹ and a Km [5] of 520 µM. The kcat [5] was 0.00033 s⁻¹.
